Test results taken from publication PMC4703963.
Values belong to the binder of their own block, whether it stands above or below them.

Assays:
Conditions in all cases: remark: other sources report otherwise
[1] = target: Prolyl hydroxylase domain protein 2 (PHD2), endogenous (human (endogenous in U2OS, H2030, A549)), Q9GZT9; experiment: non-reducing SDS-PAGE with immunoblot; total cell lysates (1% IGEPAL, 150 mM NaCl, 50 mM Tris-HCl pH 7.9, no reducing agent) in sample buffer without β-ME; cells treated with H2O2 (50-200 uM), T-hydro (1-3 uM), diamide (0.1-1 mM), 10% FBS or expressing H-ras V12
[2] = target: Flag-tagged PHD2 (with an HA-tagged copy of PHD2 in the co-immunoprecipitation) (human), Q9GZT9; experiment: as above
[3] = target: Flag-tagged PHD2 purified from HEK293T cells (human), Q9GZT9; experiment: non-reducing SDS-PAGE with immunoblot; tagged PHD2 affinity-purified (Flag or HA gel, peptide elution) from H2O2-treated HEK293T cells, run without DTT
[4] = target: Wild-type HA-PHD2 purified from HEK293T cells (human), Q9GZT9; experiment: as above
[5] = target: Flag-tagged catalytic domain of PHD2 (181-426) (human), Q9GZT9; experiment: non-reducing SDS-PAGE with immunoblot; total cell lysates (1% IGEPAL, 150 mM NaCl, 50 mM Tris-HCl pH 7.9, no reducing agent) in sample buffer without β-ME; cells treated with H2O2 (50-200 uM), T-hydro (1-3 uM), diamide (0.1-1 mM), 10% FBS or expressing H-ras V12

stoichiometry N [1]: 2
B1: Prolyl hydroxylase domain protein 2 (PHD2), endogenous, Q9GZT9 1-426 (natural protein)
chain: MANDSGGPGGPSPSERDRQYCELCGKMENLLRCSRCRSSFYCCKEHQRQDWKKHKLVCQGSEGALGHGVGPHQHSGPAPPAAVPPPRAGAREPRKAAARRDNASGDAAKGKVKAKPPADPAAAASPCRAAAGGQGSAVAAEAEPGKEEPPARSSLFQEKANLYPPSNTPGDALSPGGGLRPNGQTKPLPALKLALEYIVPCMNKHGICVVDDFLGKETGQQIGDEVRALHDTGKFTDGQLVSQKSDSSKDIRGDKITWIEGKEPGCETIGLLMSSMDDLIRHCNGKLGSYKINGRTKAMVACYPGNGTGYVRHVDNPNGDGRCVTCIYYLNKDWDAKVSGGILRIFPEGKAQFADIEPKFDRLLFFWSDRRNPHEVQPAYATRYAITVWYFDADERARAKVKYLTGEKGVRVELNKPSDSVGKDVF

stoichiometry N [2]: 2
B2: Flag-tagged PHD2 (with an HA-tagged copy of PHD2 in the co-immunoprecipitation), Q9GZT9 1-426 (natural protein)
chain: B1 chain

stoichiometry N [3]: 2
B3: Flag-tagged PHD2 purified from HEK293T cells, Q9GZT9 1-426 (natural protein)
chain: B1 chain

stoichiometry N [4]: 2
B4: Wild-type HA-PHD2 purified from HEK293T cells, Q9GZT9 1-426 (natural protein)
chain: B1 chain

stoichiometry N [5]: 2
B5: Flag-tagged catalytic domain of PHD2 (181-426), Q9GZT9 181-426 (domain or fragment)
chain: PNGQTKPLPALKLALEYIVPCMNKHGICVVDDFLGKETGQQIGDEVRALHDTGKFTDGQLVSQKSDSSKDIRGDKITWIEGKEPGCETIGLLMSSMDDLIRHCNGKLGSYKINGRTKAMVACYPGNGTGYVRHVDNPNGDGRCVTCIYYLNKDWDAKVSGGILRIFPEGKAQFADIEPKFDRLLFFWSDRRNPHEVQPAYATRYAITVWYFDADERARAKVKYLTGEKGVRVELNKPSDSVGKDVF
